# Assay results reported in publication PMC5481773, “Structural insights into the function of ZRANB3 in replication stress response” (Nature Communications, 2017).
# Residue numbers refer to the chain shown, from its start. Names may count otherwise.
# B1: N1036A: ZRANB3 HNH active site mutant (protein, UniProt Q5FWF4 1-1079, looked up, variant N1036A)
# DNA annealing helicase and …: MPRVHNIKKSLTPHISCVTNESDNLLDFLPDRLRAKLLPFQKDGIIFALKRNGRCMVADEMGLGKTIQAIGITYFYKEEWPLLIVVPSSLRYPWTEEIEKWIPELSPEEINVIQNKTDVRRMSTSKVTVLGYGLLTADAKTLIDALNNQNFKVVIVDESHYMKSRNATRSRILLPIVQKARRAILLTGTPALGRPEELFMQIEALFPQKFGRWTDYAKRYCNAHIRYFGKRPQWDCRGASNLNELHQLLSDIMIRRLKTEVLTQLPPKVRQRIPFDLPSAAAKELNTSFEEWEKIMRTPNSGAMETVMGLITRMFKQTAIAKAGAVKDYIKMMLQNDSLKFLVFAHHLSMLQACTEAVIENKTRYIRIDGSVSSSERIHLVNQFQKDPDTRVAILSIQAAGQGLTFTAASHVVFAELYWDPGHIKQAEDRAHRIGQCSSVNIHYLIANGTLDTLMWGMLNRKAQVTGSTLNGRKEKIQAEEGDKEKWDFLQFAEAWTPNDSSEELRKEALFTHFEKEKQHDIRSFFVPQPKKRQLMTSCDESKRFREENTVVSSDPTKTAARDIIDYESDVEPETKRLKLAASEDHCSPSEETPSQSKQIRTPLVESVQEAKAQLTTPAFPVEGWQCSLCTYINNSELPYCEMCETPQGSAVMQIDSLNHIQDKNEKDDSQKDTSKKVQTISDCEKQALAQSEPGQLADSKEETPKIEKEDGLTSQPGNEQWKSSDTLPVYDTLMFCASRNTDRIHIYTKDGKQMSCNFIPLDIKLDLWEDLPASFQLKQYRSLILRFVREWSSLTAMKQRIIRKSGQLFCSPILALEEITKQQTKQNCTKRYITKEDVAVASMDKVKNVGGHVRLITKESRPRDPFTKKLLEDGACVPFLNPYTVQADLTVKPSTSKGYLQAVDNEGNPLCLRCQQPTCQTKQACKANSWDSRFCSLKCQEEFWIRSNNSYLRAKVFETEHGVCQLCNVNAQELFLRLRDAPKSQRKNLLYATWTSKLPLEQLNEMIRNPGEGHFWQVDHIKPVYGGGGQCSLDALQTLCTVCHKERTARQAKERSQVRRQSLASKHGSDITRFLVKK
# B2: R947Q: cancer associated ZRANB3 mutant (protein, UniProt Q5FWF4 1-1079, looked up, variant R947Q)
# DNA annealing helicase and …: B1 DNA annealing helicase and … with R947Q, A1036N
# B3: H1021A: ZRANB3 HNH active site mutant (protein, UniProt Q5FWF4 1-1079, looked up, variant H1021A)
# DNA annealing helicase and …: B1 DNA annealing helicase and … with H1021A, A1036N
# B4: H1015A: ZRANB3 HNH active site mutant (protein, UniProt Q5FWF4 1-1079, looked up, variant H1015A)
# DNA annealing helicase and …: B1 DNA annealing helicase and … with H1015A, A1036N
# B5: K1046A, R1048A: ZRANB3 double mutant in helix α8 (protein, UniProt Q5FWF4 1-1079, looked up, variant K1046A R1048A)
# DNA annealing helicase and …: B1 DNA annealing helicase and … with A1036N, K1046A, R1048A
# B6: T66A: cancer associated ZRANB3 mutant (protein, UniProt Q5FWF4 1-1079, looked up, variant T66A)
# DNA annealing helicase and …: B1 DNA annealing helicase and … with T66A, A1036N
# B7: R1009A: ZRANB3 basic residues HNH mutant (protein, UniProt Q5FWF4 1-1079, looked up, variant R1009A)
# DNA annealing helicase and …: B1 DNA annealing helicase and … with R1009A, A1036N
# B8: K984A: ZRANB3 basic residues HNH mutant (protein, UniProt Q5FWF4 1-1079, looked up, variant K984A)
# DNA annealing helicase and …: B1 DNA annealing helicase and … with K984A, A1036N
# B9: H1045A: ZRANB3 HNH active site mutant (protein, UniProt Q5FWF4 1-1079, looked up, variant H1045A)
# DNA annealing helicase and …: B1 DNA annealing helicase and … with A1036N, H1045A
# B10: R987A: ZRANB3 basic residues HNH mutant (protein, UniProt Q5FWF4 1-1079, looked up, variant R987A)
# DNA annealing helicase and …: B1 DNA annealing helicase and … with R987A, A1036N
# B11: K988A: ZRANB3 basic residues HNH mutant (protein, UniProt Q5FWF4 1-1079, looked up, variant K988A)
# DNA annealing helicase and …: B1 DNA annealing helicase and … with K988A, A1036N
# B12: D1020Y: cancer associated ZRANB3 mutant (protein, UniProt Q5FWF4 1-1079, looked up, variant D1020Y)
# DNA annealing helicase and …: B1 DNA annealing helicase and … with D1020Y, A1036N
# B13: K998A: ZRANB3 basic residues HNH mutant (protein, UniProt Q5FWF4 1-1079, looked up, variant K998A)
# DNA annealing helicase and …: B1 DNA annealing helicase and … with K998A, A1036N
# B14: D1020A: ZRANB3 HNH active site mutant (protein, UniProt Q5FWF4 1-1079, looked up, variant D1020A)
# DNA annealing helicase and …: B1 DNA annealing helicase and … with D1020A, A1036N
# Tested on: not listed separately
# Assay: NADH-coupled ATPase assay of ZRANB3 proteins
# Assay type: biochemical
# Conditions: 150 nM ZRANB3, 5 mM ATP, 0.5 μM flap DNA, 24 °C, A340 nm, average rates
# Protocol: The NADH-coupled ATPase assay is based on a reaction in which the regeneration of hydrolysed ATP is coupled to the oxidation of NADH[59]. It was used as described, with minor modifications. ZRANB3 (150 nM) was added to a 150 μl reaction containing 25 mM Tris-Cl pH 7.5, 13 mM MgCl2, 1.8 mM DTT, 100 μg ml^−1 BSA, 3 mM phosphoenolpyruvate, 36 U ml^−1 pyruvate kinase, 20 U ml^−1 lactate dehydrogenase, 0.5 μM flap DNA, and 5 mM ATP, with 750 μM NADH added immediately before ZRANB3. Reactions were mixed for 1 min on a shaker at 23 °C and analysed by measuring A340 nm at 20 s intervals during 60 min, on a Spectramax 250 microplate spectrophotometer at 24 °C. Linear titration of freshly prepared NADH was performed to obtain a standard curve for units of absorbance mM^−1 NADH. ATPase rates were calculated from data collected between time points where product formation was linear with respect to time.
row,ATP hydrolysis rate,Molecule
1,14.05 ± 2.46 µmol/L/min,B1
2,10.24 ± 1.15 µmol/L/min,B2
3,18.59 ± 1.98 µmol/L/min,B3
4,18.67 ± 2.24 µmol/L/min,B4
5,19.38 ± 1.74 µmol/L/min,B5
6,0.45 ± 0.03 µmol/L/min,B6
7,7.49 ± 2.57 µmol/L/min,B7
8,20.93 ± 2.01 µmol/L/min,B8
9,8.91 ± 0.66 µmol/L/min,B9
10,6.34 ± 0.40 µmol/L/min,B10
11,18.83 ± 1.94 µmol/L/min,B11
12,11.60 ± 3.30 µmol/L/min,B12
13,15.12 ± 0.48 µmol/L/min,B13
14,12.94 ± 0.67 µmol/L/min,B14

# Same assay, conditions: 150 nM ZRANB3, 5 mM ATP, 0.5 μM flap DNA, 24 °C, average rates
row,k,Molecule
1,93.71 ± 16.43 min⁻¹,B1
2,68.26 ± 7.70 min⁻¹,B2
3,123.95 ± 13.19 min⁻¹,B3
4,124.46 ± 14.96 min⁻¹,B4
5,129.23 ± 11.62 min⁻¹,B5
6,3.02 ± 0.21 min⁻¹,B6
7,49.94 ± 17.14 min⁻¹,B7
8,139.56 ± 13.45 min⁻¹,B8
9,59.42 ± 4.40 min⁻¹,B9
10,42.31 ± 2.70 min⁻¹,B10
11,125.55 ± 12.95 min⁻¹,B11
12,77.36 ± 22.04 min⁻¹,B12
13,100.85 ± 3.22 min⁻¹,B13
14,86.32 ± 4.49 min⁻¹,B14

# Tested on: splayed DNA duplex
# Assay: Nuclease assay with wild-type and mutant ZRANB3 proteins
# Assay type: biochemical
# Conditions: 200 nM nuclease, 10 nM fluorescently labelled DNA substrate, 2 mM ATP, 30 °C, 60 min, native PAGE (Fig. 3c)
# Description: Figure 3 Characterisation of the ZRANB3 HNH active site. (a) Overlay of the T4 endonuclease VII (yellow) and the ZRANB3 HNH (white) structures. […] (b) Overlay of the T4 endonuclease VII (yellow, labels in italics) and the ZRANB3 HNH (white) structures. Mg^2+ ion in T4 endonuclease is shown as a purple sphere. His1021, Asp1020 and His1045 in the HNH structure overlap with the active site residues of T4 endonuclease VII. (c) Nuclease assay with the wild-type and mutant ZRANB3 proteins in the presence and absence of ATP. Reactions were analysed by native poly-acrylamide gel electrophoresis. Indicated are mobilities of the fluorescently labelled DNA substrate and product. (d) Nuclease assay with non-hydrolysable ATP homologues. Shown are controls with the wild-type ZRANB3 and the ATPase dead K65R mutant in the presence of ATP.
# Oligonucleotides used in the nuclease assays (5′-[…]-[…]-3′ and Cy3 5′-end-labelled 5′-[…]-[…]-3′) were incubated in 10 mM Tris-HCl pH 7.5, 50 mM NaCl for 3 min at 94 °C, after which the reactions were allowed to gradually cool down.
# The nuclease assays with ZRANB3 was performed essentially as described in ref. [9]. Briefly, reaction mixtures containing the indicated nuclease (200 nM) and fluorescently labelled DNA substrate (10 nM) in 10 μl of reaction buffer (50 mM Tris-HCl; 50 mM NaCl; 5 mM MgCl2; 2 mM ATP (Sigma); pH 7.5) were incubated at 30 °C for 60 min. The reactions were stopped by incubation with 0.1% SDS and 4 mg ml^−1 of proteinase K at 30 °C for 45 min. The reactions were then mixed with sucrose (10% final concentration) and resolved in a 10% polyacrylamide gel in 0.5 × TBE buffer (45 mM Tris-borate, 1 mM EDTA; pH 7.5). The fluorescent DNA species were visualized and quantified using Pharos Mx imager and Quantity one software (BioRad).
row,Molecule,ZRANB3 endonuclease activity of mutant protein
1,B1,substantially reduced
2,B3,completely abrogated
3,B9,completely abrogated
4,B14,completely abrogated
